The supplement of paper PMC9170038

System: MS2 coat protein
Test: apparent KD of MS2 coat protein; designed switch direction (-1 OFF switch, 1 ON switch): -1; higher = weaker reporter binding
Summary of the method: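 SNAP-549-labelled MS2 coat protein was titrated, doubling from 0.7 or 1.5 nM to 3 µM, over designed RNA switches transcribed on Illumina chips by stalled E. coli RNA polymerase. Runs were done without input, with 200 uM small-molecule ligand, or with an oligonucleotide input. Apparent KD is the per-design median over clusters of curve-fitted normalised fluorescence.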

[1] = Eterna round: R95, input ligand: FMN 200 uM
[2] = Eterna round: R95, input ligand: microRNA oligo, concentration not stated
[3] = Eterna round: R95, input ligand: none
[4] = input ligand: microRNA oligo, concentration not stated

Sequence | apparent KD of MS2 coat protein (input ligand: FMN 200 uM) [µM] | apparent KD of MS2 coat protein (input ligand: none) [µM] | apparent KD of MS2 coat protein [1] [µM] | apparent KD of MS2 coat protein [2] [µM] | apparent KD of MS2 coat protein [3] [µM] | apparent KD of MS2 coat protein [4] [µM]
GUUUUCAGACGGAGAUCCUACAUGAGGAUCACCCAUGUCUCUCUUGCUAAUUGCUCGUCUUUUUCUCCUCUGUUCUC [Elimod 36 - Jieux - Sensor, turn-off variant 1] (Eterna round: R97, puzzle: Sensor, turn-off variant 1) | 0.0812 | 0.0958 | – | – | – | –
UAUAAGGUAGGAUAUACGAAUAAAUAGGGUAGAAUAAUAACACAUGAGGAUCACCCAUGUAGAAGGACCAAUAU [Mat - Exclusion 2 - Mod of my Tesla design - D28] (puzzle: Exclusion 2) | – | – | 0.0393 | 0.0211 | 0.0203 | –
UAAAAGAUGGACGAACCACAUGAGGAUCACCCAUGUCGAGGUUAGGAUAUGUCGUCCAUGGGACCACAGAAGGGACUGAAGACU [Teraqu] (Eterna round: R96, puzzle: Exclusion NG 3) | 0.016 | 0.0202 | – | – | – | 0.0113
AGAAAUGCCCAUGGCCGCAAGCUUUUUACUUGUCUUACCACAUGAGGAUCACCCAUGUGACAUGGAUUCCUUAUGAU [Sensor v3, turn-off variant 2 (MOD of Oranla)] (puzzle: Sensor v3, turn-off variant 2) | – | – | 0.169 | 0.75 | 0.248 | –
UAAAGACAUGAGGAUCACCCAUGUAAGGAUAUCGCCUGCGGUGGCGCCAGCCAUUAGGCGAGAAGGUGCGGUGA [Eternabot (L1) Solution 14] (Eterna round: R97, puzzle: Exclusion 1) | 0.326 | 0.417 | – | – | – | –
CUCUUGGCAGGAUAUGCAAUUUUAGACAUGAGGAUCACCCAUGUGAUCAUUCCAUAUUAUGCAGAAGGGCCUAAAC [JR_E5_Sub049] (puzzle: Exclusion 5) | – | – | – | 0.0543 | – | –
CAGUACUGAGGAUAUACAUGAGGAUCACCCAUGUGUUCCUGCUAGGAUACUAGCAAGGGUAGAAGGCAGUACUG [Mat - Exclusion 3 - Eli Mod - D4] (Eterna round: R97, puzzle: Exclusion 3) | 0.0594 | 0.0197 | – | – | – | –
GAAAAGUAAGGAUAUGUCUCCAGUGAGGAAACUCACUGGAGACAGAAGGUACAUGAGGAUCACCCAUGUUCCUC [ExDelusion 5 - Jieux - Exclusion 4] (Eterna round: R97, puzzle: Exclusion 4) | 0.289 | 0.0427 | – | – | – | –
AAAGGGCAAGCAUGAUCCCACAUGAGGAUCACCCAUGUGUUCGUCUUAUAGGCUGCUGAGGCUUUUGCCUCGGUGGC [LRO Sensor-off var1-04 loose mod of D91 from Mat747] (Eterna round: R97, puzzle: Sensor, turn-off variant 1) | 0.484 | 0.567 | – | – | – | –
UGAUCCGGUGUGAGGAUAUUUAACCUCAUAUAGGUAAAGAAGGCACAUGAGGAUCACCCAUGUCGAGGCCCGAU [Eternabot (L2) Solution 74] (Eterna round: R97, puzzle: Brourd's mod of Exclusion 4) | 0.209 | 0.168 | – | – | – | –
GACACGGAUGUCAGGAUAUGCAAAUGGCAUCGUUCGCAGAAGGGACAUGAGGAUCACCCAUGUAAAAGUGGACC [Onsorelama] (Eterna round: R97, puzzle: Brourd's mod of Exclusion 4) | 0.109 | 0.114 | – | – | – | –
UCAUUGGUAGGAUAUACAUGAGGAUCACCCAUGUGUCCGGAGCAGUAUGCUUGAAAACGUAGAAGGACCUAGGA [Eternabot (L1) Solution 15] (Eterna round: R97, puzzle: Exclusion 3) | 0.0453 | 0.0404 | – | – | – | –
UGUUGUCGCGCAGGAUAUGAGGAUCACCCAUAGAAGGAUAUCGAAAGAGAAGGUCUGAGGAUUACCCAGAAGGGCGGGACAACU [pwkr exNG2 2xF5 2xFMN.13] (Eterna round: R96, puzzle: Exclusion NG 2) | 0.807 | 0.137 | – | – | – | 0.133
CCAAGCUAUUUCAUAACAAACAUGAGGAUCACCCAUGUGUAAGCAAUUAUGUUUGGGCUCUUUAGUGCUCGUCUUAU [JR_STOV1_Sub046] (Eterna round: R97, puzzle: Sensor, turn-off variant 1) | 0.0192 | 0.0192 | – | – | – | –
AAUGAUUGACGAGGAUAUUGUGGUAGAUCACGACGAGAAGGCGUCUGUCACAUGAGGAUCACCCAUGUGAGCUUUGUGGAUAGA [Ex NG1 #73] (Eterna round: R96, puzzle: Exclusion NG 1) | 0.0516 | 0.0722 | – | – | – | 0.0374
GGGAAACAUGAGGAUCACCCAUGUCAGGAUAUGAUACUAUGUACUUCGGUACAUAGUAUCAGAAGGGACAUCAU [Ex1-3: 13] (puzzle: Exclusion 1) | – | – | – | 0.0792 | – | –
CCUCUACAUGAGGAUCACCCAUGUGAGGAUAUCCUGCGAGGAUCAAAAGAUCCUCGUGGGAGAAGGCAUAUGAA [Omei Ex1 A1] (Eterna round: R97, puzzle: Exclusion 1) | 0.0343 | 0.0229 | – | – | – | –

Sequence | apparent KD of MS2 coat protein (input ligand: FMN 200 uM) [µM] | apparent KD of MS2 coat protein (input ligand: none) [µM] | apparent KD of MS2 coat protein [1] [µM] | apparent KD of MS2 coat protein [2] [µM] | apparent KD of MS2 coat protein [3] [µM] | apparent KD of MS2 coat protein [4] [µM]
AUCAGCUCGUGAGGAUAUACAUGCGUGCUUCGGCACGUAUGAUAGAUCACAUGAGGAUCACCCAUGUAGAAGGUACGAGCUGAU [ENG2/4-C3] (Eterna round: R96, puzzle: Exclusion NG 2) | 0.0126 | 0.0126 | – | – | – | 0.0107
GUGCCGCGAGGAUAUACAGACGGGUCCAAAACGUGUCUCGGACUUGAGGAUCACCCAAGUAGAAGGCUUUUCAG [salish99_ex2_r4_621] (Eterna round: R97, puzzle: Exclusion 2) | 0.0283 | 0.0243 | – | – | – | –
UUUUUGUCAGGAUAUGAGUCGUAGAACAAUAGUACUACGUCUCAGAAGGGACAUGAGGAUCACCCAUGUGCCUC [Fiskers Ex 4 Super Stable 44 mod 28] (puzzle: Exclusion 4) | – | – | – | 0.0262 | – | –
GAUUAUGCGAGCUUUAGGGACAUGAGGAUCACCCAUGUUCGUCUUAUUGAUCUAGGUGCGCUAACAUACCUAAAUCU [JMF 49] (puzzle: Sensor v3, turn-off variant 1) | – | – | 0.0262 | 0.0347 | 0.03 | –
GCAGGUUAAGUAAGGAUAUACCUCUGGAAACAGAGGUAGAAGGUACAUGAGGAUCACCCAUGUUUCUCUUUUGC [Mod of Eli 5 - Jieux - Brourd's mod of Exclusion 4] (Eterna round: R97, puzzle: Brourd's mod of Exclusion 4) | 0.0248 | 0.016 | – | – | – | –
AGGUCCUUCUGGACACAUGAGGAUCACCCAUGUGAGGUCAGCGAGGAUAUCGGUCUAUAAUGUGACGAGAAGGCGCGGACCGAU [Ex NG3 #59] (Eterna round: R96, puzzle: Exclusion NG 3) | 0.0168 | 0.0164 | – | – | – | 0.0113
CUCCGCGCUGUCAGGAUAUCCAGGGCCUACCGGCCGGAGAAGGGACAUGAGGAUCACCCAUGUUCGGGUUAGCA [Eszaquus] (puzzle: Brourd's mod of Exclusion 4) | – | – | – | 0.0133 | – | –
GGAGAGGUAGGAUAUGGACCUUAGAACAUGAGGAUCACCCAUGUAGGACCACAUGAAAUGCCAGAAGGACCAGUCC [AK-MS2ROC-r4-exclusion5-5] (Eterna round: R97, puzzle: Exclusion 5) | 0.153 | 0.145 | – | – | – | –
GAGAAGGUAGGAUAUACGAAUAAAAAGGGUAGAAUAAUAACACAUGAGGAUCACCCAUGUAGAAGGACCAAGAG [Mat - Exclusion 2 - Mod of my Tesla design - D20] (puzzle: Exclusion 2) | – | – | 0.045 | 0.0251 | 0.0265 | –
CAAAACAGAGGAUAUACAUUUCCUCACCGCCAAAUAGCGGAACAUGAGGAUCACCCAUGUAGAAGGCUGGAAAA [Usenqura] (puzzle: Exclusion 2) | – | – | 0.384 | 0.0371 | 0.0434 | –
CCGAGCAAGGUGAGGAUAUUAAGAGCUACAGAGCAUGAGAAGGCACAUGAGGAUCACCCAUGUUACUACAGGGA [Eternabot (L1) Solution 66] (Eterna round: R97, puzzle: Brourd's mod of Exclusion 4) | 0.0549 | 0.054 | – | – | – | –
AACGUGGCUUAGGAUAUUGCUACGCAAAAGUAACAAGAAGGAAGCACAUGAGGAUCACCCAUGUGAUUCGUUGA [Larevean] (puzzle: Exclusion 6) | – | – | 0.0271 | 0.0122 | 0.0133 | –
CCAGCGUAUGUGAGGAUAUGCUGGUCCUUGGAUCAGCAGAAGGCACAUGAGGAUCACCCAUGUGAUGACGUUGG [JL bmx4 3.40] (puzzle: Brourd's mod of Exclusion 4) | – | – | – | 0.0426 | – | –
GUGUAGGUAGGAUAUACAUGAGGAUCACCCAUGUGAAUAAGAUAGAAUAAGAUAAAGUGUAGAAGGACUAGUGU [Excluse me!!! 14 - Jieux - Exclusion 3] (puzzle: Exclusion 3) | – | – | – | 0.0387 | – | –
CUGCUCCGUGUAGGAUAUGCAUACUCCCAUUAUGCAGAAGGACAUGAGGAUCACCCAUGUAUGUUAUUAUCACGUGUUGCGUAC [Design 14] (Eterna round: R96, puzzle: Exclusion NG 1) | – | – | – | – | – | 0.02
AAUAACAAGCAAGAUCCUAACAUGAGGAUCACCCAUGUGCUCGUCUUGUAAAGUACUAUCACGAAAGUGAUAGUACA [Sensor 3, v1 - 48] (Eterna round: R96, puzzle: Sensor v3, turn-off variant 1) | 0.0223 | 0.0255 | – | – | – | 0.437
